Experimental data as given in US20140206846A1.

Legend:
[1] = target: T1, human VEGF (human), P15692; assay: Biacore SPR, Fab captured by anti-light chain antibody, VEGF as analyte; settings: remark: other sources report otherwise
T1 chain: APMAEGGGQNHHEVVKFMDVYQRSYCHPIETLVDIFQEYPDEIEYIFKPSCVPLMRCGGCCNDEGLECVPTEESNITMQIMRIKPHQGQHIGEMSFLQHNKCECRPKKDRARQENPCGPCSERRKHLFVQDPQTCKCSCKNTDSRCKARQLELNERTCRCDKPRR

[2] = target: T1, human VEGF (human), P15692; assay: Biacore; settings: bispecific antibody; chains VL:VH; remark: other sources report otherwise

B1: VH6L (bispecific antibody, V domains shown)
VL: NIQKTQSPSSLSASVGDRVTITCRALWHISSYLAWYQQKPGKAPKLLIYAASHLHYGVPSRFSGSGSGTDFTLTISSLQPEDFATYYCQQYSGLPYTFGQGTKVEIK
VH: YYQLVESGGGLVQPGGSLRLSCAADGFLFSGYAMSWIRQAPGKGLEWIGQISGSGGSTVYNYNVLGRFTISRDNSKNTLYLQMNSLRAEDTAVYYCARDTGYFDHWGQGTLVTVSS
With B1 the Kd [1] was 7.8 nM and the koff [2] was 0.000738 s⁻¹.
